The values that follow come from PMC9855569, “Construction of Bi-Enzyme Self-Assembly Clusters Based on SpyCatcher/SpyTag for the Efficient Biosynthesis of (R)-Ethyl 2-hydroxy-4-phenylbutyrate” (Biomolecules, 2023).

Substrate in this series: CCOC(=O)C(=O)CCc1ccccc1
Briefly: purified protein. The series is classed as biochemical, Lodderomyces parapsilosis. Particulars: apparent constant, free enzymes (CpCR with GDH), NADPH co-substrate, pH 7.0, 30 °C, OPBE 10-50 mM.

B1: CpCR (Lodderomyces parapsilosis) (protein)
chain: MTKAVPDKFQGFAVSDPKNWNRPKLASYERKQINPHDVVLKNEVCGLCYSDIHTLSAGWQPLQRDNLVVGHEIIGEVIAVGDEVTEFKVGDRVGIGAASSSCRSCQRCDSDNEQYCKQGAATYNSKDVRSNNYVTQGGYSSHSIADEKFVFAIPEDLPSSYGAPLMCAGITVFSPLIRNLGLDARGKNVGIIGIGGLGHLALQFANAMGANVTAFSRSSSKKEQAMKLGAHDFVATGEDKTWYKNYDDHFDFILNCASGIDGLNLSEYLSTLKVDKKFVSVGLPPSEDKFEVSPFTFLQQGASFGSSLLGSKTEVKEMLNLAAKHNVRPMIEEVPISEENCAKALDRCHAGDVRYRFVFTDFDKAFKA
notes: full length, 6xHis tag, recombinant in E. coli BL21(DE3), 41 kDa; free (unassembled) enzyme, in the free bi-enzyme system with GDH
On to B1, for which the Km is 23.94 mM, the kcat is 1.76 s⁻¹ and the catalytic efficiency (kcat/Km) was found to be 74 M⁻¹ s⁻¹.
